The target of the test is stratifin (14-3-3 σ) (UniProt P31947). The experiment in a line: anti-myc IP, anti-stratifin blot. The settings on record: reference: wild-type Pkp-3-myc; sites S285.

From publication PMC3790753 come the findings set out here.

“plakophilin-3 (from UniProt Q9Y446) Pkp-3-myc S285A”: the “binding against the reference” value is listed as “lost”.
